According to paper PMC4439613, “TRIP13 is a protein-remodeling AAA+ ATPase that catalyzes MAD2 conformation switching” (eLife, 2015):

T1: PCH-2 (Caenorhabditis elegans, UniProt Q09535)
T1 construct: full-length (424 residues), N-terminal His6 tag removed with TEV protease, E. coli Rosetta 2 (DE3) pLysS
T1 sequence (Q09535 1-424): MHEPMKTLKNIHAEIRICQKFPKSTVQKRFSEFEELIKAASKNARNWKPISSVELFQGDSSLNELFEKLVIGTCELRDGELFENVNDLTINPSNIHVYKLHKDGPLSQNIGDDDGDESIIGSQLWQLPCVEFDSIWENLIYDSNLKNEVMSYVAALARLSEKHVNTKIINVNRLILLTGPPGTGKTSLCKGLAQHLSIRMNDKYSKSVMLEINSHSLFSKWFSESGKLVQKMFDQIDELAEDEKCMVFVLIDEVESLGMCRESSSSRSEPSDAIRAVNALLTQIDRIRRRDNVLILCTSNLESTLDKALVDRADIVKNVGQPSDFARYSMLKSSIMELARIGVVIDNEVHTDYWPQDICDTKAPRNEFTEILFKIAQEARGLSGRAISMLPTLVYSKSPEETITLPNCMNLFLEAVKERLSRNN

T2: M. musculus TRIP13^E253Q (M. musculus, UniProt Q3UA06 1-432, E253Q)
T2 construct: TRIP13, M. musculus, full length, Walker B mutation E253Q; also called Walker B mutant; ATP hydrolysis-defective TRIP13; source: E. coli Rosetta 2 (DE3) pLysS, purified (Ni-NTA, Hitrap Q ion exchange, Superdex 200 SEC); not shown: His6, N-terminal, cleaved
T2 sequence (looked up): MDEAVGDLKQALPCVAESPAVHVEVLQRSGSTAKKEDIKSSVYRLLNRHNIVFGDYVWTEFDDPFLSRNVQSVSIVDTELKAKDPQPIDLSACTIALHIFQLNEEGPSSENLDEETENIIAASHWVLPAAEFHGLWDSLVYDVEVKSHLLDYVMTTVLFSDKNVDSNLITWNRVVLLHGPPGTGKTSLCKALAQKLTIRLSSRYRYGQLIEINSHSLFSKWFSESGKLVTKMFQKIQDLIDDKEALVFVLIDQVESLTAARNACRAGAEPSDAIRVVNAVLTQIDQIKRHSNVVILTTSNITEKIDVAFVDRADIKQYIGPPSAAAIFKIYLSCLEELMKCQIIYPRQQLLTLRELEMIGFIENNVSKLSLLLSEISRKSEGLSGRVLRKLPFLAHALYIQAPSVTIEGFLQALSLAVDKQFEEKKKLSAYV

B1: M. musculus p31(comet):C-MAD2^R133A complex (complex)
chain 1: MAASGEEDMSELSPAAAPNLDWYEKPEETHAPEVDLETVIPPAQEPSNPAEPFCPRDLVPVVFPGPVSQEDCCQFTCELLKHILYQRHQLPLPYEQLKHFYRKVPQAEDTARKKAWLATEARNRKCQQALAELESVLSHLRDFFARTLVPQVLILLGGNALSPKEFYELDLSRLAPFGVDQGLNTAACLRRLFRAIFLADPFSELQTPPLMGTIVMVQGHRDCGEDWFQPKLNYRVPSRGHKLTVTLSCGRPSVPAMASEDYIWFQAPVTLKGFHE
chain 2: MAQQLAREQGITLRGSAEIVAEFFSFGINSILYQRGIYPSETFTRVQKYGLTLLTTTDPELIKYLNNVVEQLKEWLYKCSVQKLVVVISNIESGEVLERWQFDIECDKTAKEEGVRREKSQKAIQDEIRSVIAQITATVTFLPLLEVSCSFDLLIYTDKDLVVPEKWEESGPQFITNCEEVRLRSFTTTIHKVNSMVAYKTPVND
notes: p31(comet), M. musculus, full length; MAD2, M. musculus, full length, R133A, closed conformer; Heterodimer of m12 and m9; also called p31(comet):MAD2; source: formed from separately purified proteins (E. coli Rosetta 2 (DE3) pLysS); not shown: His6, N-terminal, cleaved; copies: 1 + 1

Legend:
[1] = biological target: T1, PCH-2; assay: X-ray crystal structure, […] Å; assay type: binding; conditions: ATPase active site of chains B and E; ADP co-purified, no nucleotide added
[2] = biological target: T2, M. musculus TRIP13^E253Q; assay: SEC-MALS; TRIP13^E253Q with p31(comet) and C-MAD2^R133A, protocol as for the size exclusion analysis; conditions: both partners purified
[3] = biological target: T2, M. musculus TRIP13^E253Q; assay: SEC; equimolar (10 nanomoles each) TRIP13^E253Q, p31(comet) and C-MAD2^R133A in 300 μl, 20 mM Tris-HCl pH 7.5, 300 mM NaCl, 2 mM ATP, on ice 30 min; Superdex 200 Increase 10/300 GL with 0.1 mM ATP; Coomassie gels of fractions; conditions: both partners purified

Molecule | X-ray crystal structure, 2.3 Å [1] | stoichiometry N [2] [copy per TRIP13 hexamer] | stoichiometry N [3]
Nc1ncnc2c1ncn2[C@@H]1O[C@H](COP(=O)(O)OP(=O)(O)O)[C@@H](O)[C@H]1O [ADP] | two subunits in the hexamer (chains B and E) are bound to ADP | – | –
B1 | – | ~1 | ~6 TRIP13^E253Q : p31(comet):MAD2 (molar ratio)
